The values that follow come from US20240245811A1, “ALPHA RA[…] ANALOGUE AND USE THEREOF IN METHODS OF TREATING CCKB RECEPTOR POSITIVE DISEASES” (Paul Scherrer Institut, priority 2020, published 2024).

Each structure is given as a SMILES string. Read-outs that look alike come from different tables or passages of the source.

Data set [1] deals with A431/CCKBR tumors. Briefly: SPECT/CT imaging with 111In-PP-F11N after 225Ac-PP-F11N treatment. Type of data set: in vivo, nude mice. The note with it: 13 MBq i.v., 2 h after injection, tumor-free mice after 45 or 60 kBq 225Ac-PP-F11N. The text has this: Image reconstruction and processing is accomplished by using VivoQuant 3.0 Patch1 software.
Data set [2] can be described thus: Histological (HE) analysis of kidney and stomach after treatment. Type of data set: in vivo, nude mice. The settings on record: 60 and 120 kBq groups, organs dissected between day 34 and 49.
Data set [3] concerns A431/CCKBR tumors. The data set can be described thus: Biodistribution study in A431/CCKBR xenografted nude mice. The data set is classed as in vivo. The method, then:
(§1) 1, 4, 24, 48 h and 7 days after administration of radiolabeled peptides, mice are sacrificed and the post mortem dissected tumors and organs are weighted and their activity is measured on a gamma counter (Packard Cobra II Auto Gamma, PerkinElmer, Switzerland).

Experiment in data set [4]: as above
Type of data set: in vivo. The note with it: female, CD-1 nude, mouse, iv, total radioactivity; for tissue uptake at 4 h: 4 h post injection; for tissue uptake at 24 h: 24 h post injection; for tissue uptake at 48 h: 48 h post injection; for tissue uptake at 168 h: 7 days post injection. How it is done: as §1

A further data set concerns A431/CCKBR cells. The data set can be described thus: Cell proliferation assay (CellTiter 96 AQueous). Type of data set: cell-based, human. The settings on record: 24 h. How it is done: Human epidermoid carcinoma A431 stable cell line that overexpress CCKBR, generated as previously described (Aloj et al., J Nucl Med 2004, 45(3), 485-94) can be cultured in DMEM, supplemented with 10% FBS (Bio Concept, Switzerland), 2 mM glutamine and antibiotics (0.1 mg/mL streptomycin, 100 IU penicillin) at 37° C. in a humidified incubator containing 5% CO2.
For the cell proliferation assay, 4×10^3 cells per well are seeded on the 96-well plates.
Cell proliferation can be analyzed using CellTiter 96 AQueous Non-Radioactive Cell Proliferation Kit (Promega AG, Switzerland) according to the manufacturer's instruction. Absorbance of formazan product is measured at 570 nm with a reference of 650 nm using a MicroPlate Reader (PerkinElmer, Switzerland). The absorbance of the control (untreated) cells is set as 100% cell viability. […] The assay is performed in triplicate.

Data set [5] deals with A431/CCKBR tumors. The data set can be described thus: Therapy study in A431/CCKBR tumor-bearing nude mice. The data set is classed as in vivo. The settings on record: 30-120 kBq, all groups. The method, then: For the therapy study, nude mice are subcutaneously injected with 5×10^6 A431/CCKBR cells on the left shoulder. […] The control group is injected with 100 μL PBS. Tumor diameters and mice weight are recorded daily during the working days. Tumor volume is calculated by using the formula formula V=(W^2×L)/2 (Faustino-Rocha et al. Lab Anim. 2013, 42(6), 217-224). Nude mice are sacrificed when the tumor volume exceeded 1.5 cm^3. The data are obtained from two sets of experiments including control, 30, 45, 60 kBq and control, 60, 90, 120 kBq treatment groups.
GraphPad Prism 7.00 for Windows was used for all statistical analysis. […] Log-rank (Mantel-Cox) test and Gehan-Breslow-Wilcoxon test are performed to compare different survival curves of treatment groups with the control group. Endpoints are defined as death in survival curves. Values of P<0.05 are considered statistically significant. The results are reported as mean±standard deviation of at least three independent replicates.

Another data set deals with T1, CCKBR (Homo sapiens, UniProt P32239).
T1 sequence (P32239 1-447): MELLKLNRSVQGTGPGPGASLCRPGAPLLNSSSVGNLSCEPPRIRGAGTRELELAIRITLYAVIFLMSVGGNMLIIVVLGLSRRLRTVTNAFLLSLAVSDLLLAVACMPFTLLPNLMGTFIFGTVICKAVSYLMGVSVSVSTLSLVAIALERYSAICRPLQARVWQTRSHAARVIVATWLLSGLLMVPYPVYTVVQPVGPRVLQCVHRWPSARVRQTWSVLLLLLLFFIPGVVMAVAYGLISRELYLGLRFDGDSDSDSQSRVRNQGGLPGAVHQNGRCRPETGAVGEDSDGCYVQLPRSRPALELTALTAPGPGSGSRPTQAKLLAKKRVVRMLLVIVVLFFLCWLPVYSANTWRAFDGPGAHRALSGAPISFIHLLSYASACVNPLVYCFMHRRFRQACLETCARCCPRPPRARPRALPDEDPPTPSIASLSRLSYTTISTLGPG
The note with it: cited from earlier work.

[6] abbreviates: 38 kBq, stomach, read-out: activity in stomach.
Where [7] appears, read: tumor (A431/CCKBR xenograft), 38 kBq, tumor, read-out: tumor uptake.

As to `CCCC[C@H](NC(=O)[C@H](Cc1c[nH]c2ccccc12)NC(=O)CNC(=O)[C@H](Cc1ccc(O)cc1)NC(=O)[C@H](C)NC(=O)[C@@H](CCC(=O)O)NC(=O)[C@@H](CCC(=O)O)NC(=O)[C@@H](CCC(=O)O)NC(=O)[C@@H](CCC(=O)O)NC(=O)[C@@H](CCC(=O)O)NC(=O)[C@@H](CCC(=O)O)NC(=O)CN1CCN(CC(=O)O)CCN(CC(=O)O)CCN(CC(=O)O)CC1)C(=O)N[C@@H](CC(=O)O)C(=O)N[C@@H](Cc1ccccc1)C(N)=O` [^111In-PP-F11N, metal not drawn], the “location of radioactive signals on SPECT/CT” value in the data set with A431/CCKBR tumors [1] is “only detected in the excretion organs including kidneys and bladder”.
For `CCCC[C@H](NC(=O)[C@H](Cc1c[nH]c2ccccc12)NC(=O)CNC(=O)[C@H](Cc1ccc(O)cc1)NC(=O)[C@H](C)NC(=O)[C@@H](CCC(=O)O)NC(=O)[C@@H](CCC(=O)O)NC(=O)[C@@H](CCC(=O)O)NC(=O)[C@@H](CCC(=O)O)NC(=O)[C@@H](CCC(=O)O)NC(=O)[C@@H](CCC(=O)O)NC(=O)CN1CCN(CC(=O)O)CCN(CC(=O)O)CCN(CC(=O)O)CC1)C(=O)N[C@@H](CC(=O)O)C(=O)N[C@@H](Cc1ccccc1)C(N)=O` [^225Ac-PP-F11N, metal not drawn], the “HE stains of kidney and stomach versus control” value in data set [2] is “no signs of acute radiation toxicity”. Moreover, the “tumor-to-kidney and tumor-to-stomach ratios” value in the data set on A431/CCKBR tumors [3] (at analyzed time points) is reported as “excellent”. Further, the “body or organ weights, general health or anatomy” value in the data set on A431/CCKBR tumors [3] (biodistribution study, 38 kBq) was “no significant differences in body or organ weights, general health or anatomy”. Further, the “activity level in the kidney” value with A431/CCKBR tumors [3] (kidney, 1 week post injection) is on record as 1.2%; in the data set with A431/CCKBR tumors [3] (kidney, 48 h post injection), 3.8%. In addition, the “decrease in accumulation in the kidney” value in the data set on A431/CCKBR tumors [3] (kidney, within the first four hours) came to 50%. Besides, the tissue uptake at 4 h in data set [4] (38 kBq, kidney, read-out: accumulation in the kidney) was 4.2 %ID/g; in data set [4] (setting [6]) it was 1.3 %ID/g; in data set [4] (setting [7]) it was 11.2 %ID/g. Further, the tissue uptake at 1 h came out at 8.1 %ID/g in data set [4] (38 kBq, kidney, start of the first four hours (1 h post injection), read-out: accumulation in the kidney); 1.5 %ID/g in data set [4] (38 kBq, stomach, 1 h post injection, read-out: activity in stomach); 13 %ID/g in data set [4] (tumor (A431/CCKBR xenograft), tumor, 1 h post injection, 38 kBq i.v., read-out: tumor uptake). Also, the tissue uptake in data set [4] (38 kBq, liver and bone, all analyzed time points, read-out: non-specific uptake in the liver and bone) is < 2 %ID/g. For the same compound, the values for the tissue uptake at 24 h in data set [4] (setting [6]) and in data set [4] (setting [7]) were 1.2 %ID/g and 7.2 %ID/g, respectively. Besides, the results for the tissue uptake at 48 h in data set [4] (setting [6]) and in data set [4] (setting [7]) were 0.8 %ID/g and 5.7 %ID/g, respectively. The results for the tissue uptake at 168 h in data set [4] (setting [6]) and in data set [4] (setting [7]) were 0.3 %ID/g and 4.5 %ID/g, respectively. Also, the “activity level at maximum cytotoxic effect (0% of cell viability)” value with A431/CCKBR cells is given as 100 kBq/mL. Further, the “body weight and cytotoxicity symptoms during the treatment” value with A431/CCKBR tumors [5] was “no body weight losses or other cytotoxicity symptoms”.
As for `CCCC[C@H](NC(=O)[C@H](Cc1c[nH]c2ccccc12)NC(=O)CNC(=O)[C@H](Cc1ccc(O)cc1)NC(=O)[C@H](C)NC(=O)[C@@H](CCC(=O)O)NC(=O)[C@@H](CCC(=O)O)NC(=O)[C@@H](CCC(=O)O)NC(=O)[C@@H](CCC(=O)O)NC(=O)[C@@H](CCC(=O)O)NC(=O)[C@@H](CCC(=O)O)NC(=O)CN1CCN(CC(=O)O)CCN(CC(=O)O)CCN(CC(=O)O)CC1)C(=O)N[C@@H](CC(=O)O)C(=O)N[C@@H](Cc1ccccc1)C(N)=O` [metal not drawn], the “tumor uptake and kidney accumulation” value with CCKBR (WO 2015/067473 A1) is listed as “good tumor uptake as well as low accumulation in the kidneys”. The “accumulation in healthy tissues” value with CCKBR (recent studies (Sauter 2019, Rottenburger 2020)) is recorded as “can accumulate in healthy tissues (i.e. in the stomach)”.
